Data reported in the RNAGym collection of RNA variant scans (doi:10.1073/pnas.2313332121).

B1: TPR t1 (parent)
chain: GACCAAUCUGCCCUCAGAGCUCGAGAACAUCUUCGGAUGCAGAGGAGGCAGGCUUCGGUGGCGCGAUAGCGCCAACGUCCUCAACCUCCAAUGCAUCCCACCACAUGAUGAUGCCUGAAGAGCCUUGGUUUUUUG

Variants of: B1
Experiment: polymerase ribozyme fitness, log enrichment relative to wild type (log ratio); higher = more active; in vitro selection for triplet polymerase activity
In short: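 One round of in vitro selection, in triplicate, was applied to PCR-built, transcribed mutant libraries of each subunit of a heterodimeric triplet polymerase ribozyme. The steps were annealing with a biotinylated primer, partner subunit and triplets, incubation frozen at −7 °C, gel excision of extended constructs, streptavidin-bead capture and RT-PCR. Fitness is the logarithm, base 2, of genotype enrichment over wild-type enrichment from inverse-variance-weighted replicate averages of Illumina-sequenced inputs and outputs, keeping genotypes with ≥10 input reads and ≥1 read per output.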

Variant | polymerase ribozyme fitness (log ratio)
G39C A50U C53U U78G | -2.26
C4A A84C C115U G135U | -3.92
C13U C56U U92G G93C C115A G120A | -0.609
C20U G117U A119U | -4.12
C8G G93A | -0.604
U14G C34A A121G | -0.374
A37C G45C G71C U130G U131C G135U | -3.26
G19A G61C C73U C89A C114U U131G | -5.3
A27U G36C G44C G122A U126G | -5.95
G63U U131A | -0.516
C62A C79A C115A G127A | -3.94
G25A G47U A100U G110U U112A | -6.61
A27U G69U C101A | -2.96
C8U G48A G57C G60U C82A G127A | -1.38
U7G G48A C70A C101A | -2.19
C70U A95C U109A | -7.47
C12A U54C C115U | -2.47
G44C G58C U59C U96A | -1.98
A26U A118C C123U | -3.12
G35C | -4.55
A18U G48C G71U C82A | -5.32

Variant | polymerase ribozyme fitness (log ratio)
C11G U112C | 1.9
C73U C114U | -1.31
G113U G122C C123A | -2.42
A5G C22G C73G G93U G110A | -6.4
C34U G61C C102U C124U | -4.34
C34A G60C C97A C115G | -5.15
G10A C11G G71A | -0.829
A68U G69A | -6.04
C49U U131A | -0.481
U9G C11A G39C C72G G77C A118U | -2.83
A46U C64U U109A C124A | -5.73
G35A U116C | -3.83
C85G G113U | -4.31
C82A C89A A105U U112G | -4.43
U7C G71A | -0.421
G60A G61C G110C | -5.74
C70U G110U G135U | -3.77
A95G A119G | 1.26
C88U A118G | 0.0785
A18U U21G C79G G93C G107C A108U C123G C124U | -7.63
A5C U129A | -0.548

Variant | polymerase ribozyme fitness (log ratio)
G52C A83C A118G U131A | -0.732
C22G A74C | -3.02
C12U G48C G63U U130C | -1
G44C U92G | -2.61
C13U G120C C124U | 1.91
C82A C85A | -1.3
C86U G120C | 1.51
C34U C104U U112C | -2.1
U59A A105C U112C | -0.41
C73A C99U | -2.77
C13U G47C | -1.18
C13G C15A A29G C64A C82A C104G U109G U131A | -5.2
C8A G35A C123A | -1.9
G23U C56U | -6.5
C4G C8U C15A G44U G61A | -4.85
A2U A27G G61A C104A U112C G122U | -2.93
G61A G110U | -0.817
G61A A121C | 1.95
A5U A6U U9G C28A C34A G60A A121C | -6.95
G23A G60A | -4.52
C80A A118G | -3.23

Variant | polymerase ribozyme fitness (log ratio)
C56U C73G A90U | -3.53
G42U G77U U92A U106A | -2.9
C56U C70G C115A G122A | -4.59
C56A C82G A91C G93C | -3.53
G60C C86A | -2.44
U9G A37U A100C | -0.694
G61A G71A | -2.39
G36A U55G U87A | -1.87
C85G U112A C115U | -2.5
A50G G60C C94U | -4.35
G42U U59C U87A A100U | -4.01
C70G U78G A119G | -1.17
C56G G110U A111G | -2.16
A95U U106C | -1.56
C22U C53U | -4.37
A24G G71U | -1.76
G17A A90C A95G C104U A119U | -3
U7G G19U G42A G61A | -2.64
A5C G39A G69A G120C | -4.21
G63U U78C C123U | -1.9
U9A G44U | -0.143
